This note sets out measurements from publication PMC10141581, “Autonomous Synthesis of Functional, Permanently Phosphorylated Proteins for Defining the Interactome of Monomeric 14-3-3ζ” (ACS Central Science, 2023).

This data set deals with the molecule itself. Kind of data set: SEC-MALS; 14-3-3ζ variants alone, injected at 50 μM initial concentration; Superdex 200 10/300 GL; 50 mM Tris pH 7.4, 150 mM NaCl, 0.5 mM TCEP; room temperature; dimer to monomers.

B1: 14-3-3ζ S58E (natural protein, human)
chain: MDKNELVQKAKLAEQAERYDDMAACMKSVTEQGAELSNEERNLLSVAYKNVVGARRSEWRVVSSIEQKTEGAEKKQQMAREYREKIETELRDICNDVLSLLEKFLIPNASQAESKVFYLKMKGDYYRYLAEVAAGDDKKGIVDQSQQAYQEAFEISKKEMQPTHPIRLGLALNFSVFYYEILNSPEKACSLAKTAFDEAIAELDTLSEESYKDSTLIMQLLRDNLTLWTS
notes: 14-3-3 protein zeta with Glu at position 58 (ζ-isoform numbering); also called S58E variant; phosphomimetic S58E; source: E. coli, purified
Turning to B1, the stoichiometry N – broadly, the number of molecules, sites or subunits per partner or assembly – amounted to 2.
